Laboratory results: patent publication US20260266848A1, “COMPOSITIONS AND METHODS FOR DIAGNOSING AND TREATING DYSTONIA” (Duke University, priority 2023, published 2026)

B1: Hsd17b4 (protein, UniProt P51660 1-735, looked up)
Peroxisomal multifunctional …: MASPLRFDGRVVLVTGAGGGLGRAYALAFAERGALVIVNDLGGDFKGIGKGSSAADKVVAEIRRKGGKAVANYDSVEAGEKLVKTALDTFGRIDVVVNNAGILRDRSFSRISDEDWDIIHRVHLRGSFQVTRAAWDHMKKQNYGRILMTSSASGIYGNFGQANYSAAKLGILGLCNTLAIEGRKNNIHCNTIAPNAGSRMTETVLPEDLVEALKPEYVAPLVLWLCHESCEENGGLFEVGAGWIGKLRWERTLGAIVRKRNQPMTPEAVRDNWEKICDFSNASKPQTIQESTGGIVEVLHKVDSEGISPNRTSHAAPAATSGFVGAVGHKLPSFSSSYTELQSIMYALGVGASVKNPKDLKFVYEGSADFSCLPTFGVIVAQKSMMNGGLAEVPGLSFNFAKALHGEQYLELYKPLPRSGELKCEAVIADILDKGSGVVIVMDVYSYSGKELICYNQFSVFVVGSGGFGGKRTSEKLKAAVAVPNRPPDAVLRDATSLNQAALYRLSGDWNPLHIDPDFASVAGFEKPILHGLCTFGFSARHVLQQFADNDVSRFKAIKVRFAKPVYPGQTLQTEMWKEGNRIHFQTKVHETGDVVISNAYVDLVPASGVSTQTPSEGGELQSALVFGEIGRRLKSVGREVVKKANAVFEWHITKGGTVAAKWTIDLKSGSGEVYQGPAKGSADVTIIISDEDFMEVVFGKLDPQKAFFSGRLKARGNIMLSQKLQMILKDYAKL
B2: Mtap (protein, UniProt Q9CQ65 1-283, looked up)
S-methyl-5'-thioadenosine …: MASGSACTAVKIGIIGGTGLDDPEILEGRTEKYVDTPFGKPSDALILGKIKNVDCVLLARHGRQHTIMPSKVNYQANIWALKEEGCTHVIVTTACGSLREEIQPGDMVIIDQFIDRTSLRPQTFYDGSHCSARGVCHIPMAEPFCPKTREVLIETAKKLGLRCHSKGTIVTIEGPRFSSRAESLIFRTWGADVVNMTTVPEVVLAKEAGICYASIAMATDYDCWKEHEEAVSVDGVLKTMKENANKAKSLLLTTIPQIGSMEWSETLRNLKNMAQFSVLPPRH
B3: Scfd1 (protein, UniProt Q8BRF7 1-639, looked up)
Sec1 family domain-containing …: MVGSKMAATASIRERQTVALKRMLNFNVPHVKNSTGEPVWKVLIYDRFGQDIISPLLSVKELRDMGITLHLLLHSDRDPIPDVPAVYFVMPTEENIDRLCQDLRNQLYESYYLNFISAISRSKLEDIANAALAASAVTQVAKVFDQYLNFITLEDDMFVLCNQNKELVSYRAINRPDITDTEMETVMDTIVDSLFCFFVTLGAVPIIRCSRGTAAEMVAVKLDKKLRENLRDARNSLFTGDPLGTGQFSFQRPLLVLVDRNIDLATPLHHTWTYQALVHDVLDFHLNRVNLEESTGVENSPAGARPKRKNKKSYDLTPVDKFWQKHKGSPFPEVAESVQQELESYRAQEDEVKRLKSIMGLEGEDEGAISMLSDNTAKLTSAVSSLPELLEKKRLIDLHTNVATAVLEHIKARKLDVYFEYEEKIMSKTTLDKSLLDVISDPDAGTPEDKMRLFLIYYISAQQAPSEVDLEQYKKALTDAGCNLSPLQYIKQWKAFAKMASTPASYGNTTTKPMGLLSRVMNTGSQFVMEGVKNLVLKQQNLPVTRILDNLMEMKSNPETDDYRYFDPKMLRSNDSSVPRNKSPFQEAIVFVVGGGNYIEYQNLVDYIKAKQGKHILYGCSEIFNATQFIKQLSQLGQK
B4: Ddx5 (protein, UniProt Q61656 1-614, looked up)
Probable ATP-dependent RNA …: MSSYSSDRDRGRDRGFGAPRFGGSRTGPLSGKKFGNPGEKLVKKKWNLDELPKFEKNFYQEHPDLARRTAQEVDTYRRSKEITVRGHNCPKPVLNFYEANFPANVMDVIARQNFTEPTAIQAQGWPVALSGLDMVGVAQTGSGKTLSYLLPAIVHINHQPFLERGDGPICLVLAPTRELAQQVQQVAAEYCRACRLKSTCIYGGAPKGPQIRDLERGVEICIATPGRLIDFLECGKTNLRRTTYLVLDEADRMLDMGFEPQIRKIVDQIRPDRQTLMWSATWPKEVRQLAEDFLKDYIHINIGALELSANHNILQIVDVCHDVEKDEKLIRLMEEIMSEKENKTIVFVETKRRCDELTRKMRRDGWPAMGIHGDKSQQERDWVLNEFKHGKAPILIATDVASRGLDVEDVKFVINYDYPNSSEDYIHRIGRTARSTKTGTAYTFFTPNNIKQVSDLISVLREANQAINPKLLQLVEDRGSGRSRGRGGMKDDRRDRYSAGKRGGFNTFRDRENYDRGYSNLLKRDFGAKTQNGVYSAANYTNGSFGSNFVSAGIQTSFRTGNPTGTYQNGYDSTQQYGSNVANMHNGMNQQAYAYPLPQAAPMIGYPMPTGYSQ
B5: Plekho2 (protein, UniProt Q8K124 1-495, looked up)
Pleckstrin homology …: MEEESIKEGSEKPRGARTADKAGWIKKSSGGLLGLWKDRYLLLCQAQLLVYENEDEQKCVETVELGSYEKCQDLRTLLKRKHHRFILLRSPGNKVSDIKFQAPSGEEKESWIKALNEGINRGKNKAFDEVKVDKTCALEHVTRNRVRGGQRRRPPTRIHLKEVASAASDGLSRLDLDVPDSGPPVFAPLSDISEDQPQEPPRALMPPVKPSPGPETSAVEDSKETPAGERALTPDSASSGANPESQEDAETPAKEDSDVKSLPNSTLSEKLKVSWENPSPEKPSAPESAQLSSSETPEATPRESKKPPAPPPKILSEKMKACMSGVDASGSSQSSEAPETTSPEPTQVSVNGMDDGPESALQAMGIPGPAPEDAAASPALPFSDLPSQFHPRSSSLGDLLRESPQHPRLPKEKLYRAQLEVKVASKQTEKLLNQVLGSEPPPVCAESLLSQAVEQLRQATQVLQEMRDLGELNQETPGLVQKRKELVTLYRRSAP
B6: Dbn1 (protein, UniProt Q16643 2-649, looked up)
Drebrin: AGVSFSGHRLELLAAYEEVIREESAADWALYTYEDGSDDLKLAASGEGGLQELSGHFENQKVMYGFCSVKDSQAALPKYVLINWVGEDVPDARKCACASHVAKVAEFFQGVDVIVNASSVEDIDAGAIGQRLSNGLARLSSPVLHRLRLREDENAEPVGTTYQKTDAAVEMKRINREQFWEQAKKEEELRKEEERKKALDERLRFEQERMEQERQEQEERERRYREREQQIEEHRRKQQTLEAEEAKRRLKEQSIFGDHRDEEEETHMKKSESEVEEAAAIIAQRPDNPREFFKQQERVASASAGSCDVPSPFNHRPGSHLDSHRRMAPTPIPTRSPSDSSTASTPVAEQIERALDEVTSSQPPPLPPPPPPAQETQEPSPILDSEETRAAAPQAWAGPMEEPPQAQAPPRGPGSPAEDLMFMESAEQAVLAAPVEPATADATEIHDAADTIETDTATADTTVANNVPPAATSLIDLWPGNGEGASTLQGEPRAPTPPSGTEVTLAEVPLLDEVAPEPLLPAGEGCATLLNFDELPEPPATFCDPEEVEGESLAAPQTPTLPSALEELEQEQEPEPHLLTNGETTQKEGTQASEGYFSQSQEEEFAQSEELCAKAPPPVFYNKPPEIDITCWDADPVPEEEEGFEGGD
B7: Psmd1 (protein, UniProt Q3TXS7 1-953, looked up)
26S proteasome non-ATPase …: MITSAAGIISLLDEEEPQLKEFALHKLNAVVNDFWAEISESVDKIEVLYEDEGFRSRQFAALVASKVFYHLGAFEESLNYALGAGDLFNVNDNSEYVETIIAKCIDHYTKQCVENADLPEGEKKPIDQRLEGIVNKMFQRCLDDHKYKQAIGIALETRRLDVFEKTILESNDVPGMLAYSLKLCMSLMQNKQFRNKVLRVLVKIYMNLEKPDFINVCQCLIFLDDPQAVSDILEKLVKEDNLLMAYQICFDLYESASQQFLSSVIQNLRTVGTPIASVPGSTNTGTVPGSEKDSDPMETEEKTASAVAGKTPDASPEPKDQTLKMIKILSGEMAIELHLQFLIRNNNTDLMILKNTKDAVRNSVCHTATVIANSFMHCGTTSDQFLRDNLEWLARATNWAKFTATASLGVIHKGHEKEALQLMATYLPKDTSPGSAYQEGGGLYALGLIHANHGGDIIDYLLNQLKNASNDIVRHGGSLGLGLAAMGTARQDVYDLLKTNLYQDDAVTGEAAGLALGLVMLGSKNAQAIEDMVGYAQETQHEKILRGLAVGIALVMYGRMEEADALIESLCRDKDPILRRSGMYTVAMAYCGSGNNKAIRRLLHVAVSDVNDDVRRAAVESLGFILFRTPEQCPSVVSLLSESYNPHVRYGAAMALGICCAGTGNKEAINLLEPMTNDPVNYVRQGALIASALIMIQQTEITCPKVNQFRQLYSKVINDKHDDVMAKFGAILAQGILDAGGHNVTISLQSRTGHTHMPSVVGVLVFTQFWFWFPLSHFLSLAYTPTCVIGLNKDLKMPKVQYKSNCKPSTFAYPAPLEVPKEKEKEKVSTAVLSITAKAKKKEKEKEKKEEEKMEVDEAEKKEEKEKKKEPEPNFQLLDNPARVMPAQLKVLSMTETCRYQPFKPLSIGGIIILKDTSEDVEELVEPVAAHGPKIEEEEQEPEPPEPFEYIDD

Legend:
DYT-TOR1A MEF EVs = assay: Quantitative LC-MS/MS proteomics of EVs from drug-treated DYT-TOR1A MEF cultures (ritonavir, salubrinal); type: cell-based, mouse; parameters: key to RTV Corrective Direction / RTV Corrective Direction, Grwd1 / RTV Corrective Direction, Srrm2 / RTV Corrective Direction, Rbm17 / RTV Corrective Direction, Dcaf8 / RTV Corrective Direction, Edil3 / RTV Corrective Direction, Timp3 / RTV Corrective Direction, Heatr3 / RTV Corrective Direction, Brd4 / RTV Corrective Direction, P3h4 / RTV Corrective Direction, Pacsin3 / RTV Corrective Direction, Naa50 / RTV Corrective Direction, Lpar6 / RTV Corrective Direction, Ndrg1 / RTV Corrective Direction, Kntc1 / RTV Corrective Direction, Cdk11b / RTV Corrective Direction, Sumo1 / RTV Corrective Direction, Lsm4 / RTV Corrective Direction, Hmga2 / RTV Corrective Direction, Cstf1 / RTV Corrective Direction, Tes / RTV Corrective Direction, Sbno1 / RTV Corrective Direction, Unc119b / RTV Corrective Direction, Cfdp1 / RTV Corrective Direction, Sec61b: YES = protein abundance effect opposite to DYT/WT; settings: EV protein abundance; for RTV Corrective Direction: DYT + RTV (ritonavir) vs DYT, direction compared with DYT/WT; for DYT + RTV/DYT Cohen's d: ritonavir (RTV)-treated DYT vs DYT
WT MEF EVs = assay: Quantitative LC-MS/MS proteomics of EVs from ISRIB-treated WT MEF cultures; type: cell-based, mouse; parameters: key to ISRIB and DYT Parallel Direction / ISRIB and DYT Parallel Direction, Ctdsp1 / ISRIB and DYT Parallel Direction, Pcdh19 / ISRIB and DYT Parallel Direction, Tspan7 / ISRIB and DYT Parallel Direction, Myo1e / ISRIB and DYT Parallel Direction, Plpp3 / ISRIB and DYT Parallel Direction, Sh3bp4 / ISRIB and DYT Parallel Direction, Dnajc7 / ISRIB and DYT Parallel Direction, Drg1 / ISRIB and DYT Parallel Direction, Maea: YES = protein abundance effect similar to DYT/WT; settings: EV protein abundance; for WT + ISRIB/WT Cohen's d: ISRIB-treated WT vs WT; for ISRIB and DYT Parallel Direction: WT + ISRIB vs WT, direction compared with DYT/WT

Molecule | RTV Corrective Direction (DYT-TOR1A MEF EVs) | DYT + RTV/DYT Cohen's d (DYT-TOR1A MEF EVs) | WT + ISRIB/WT Cohen's d (WT MEF EVs) | ISRIB and DYT Parallel Direction (WT MEF EVs)
B1 | YES | 4.01 | −2.20 | YES
B2 | YES | 3.50 | −0.85 | YES
B3 | YES | 4.43 | −2.48 | YES
B4 | YES | 4.48 | −0.92 | YES
B5 | YES | −5.03 | 0.14 | YES
B6 | YES | 4.58 | −3.18 | YES
B7 | YES | 4.33 | −0.65 | YES
